# Residue numbers refer to the chain shown, from its start. In names and notes the source's numbering stands.
# B1: Lyn^G2A-GFP: Nt-mutant (G2A) Lyn-GFP (protein, UniProt P07948 2-512, looked up, variant G2A)
# Tyrosine-protein kinase Lyn: ACIKSKGKDSLSDDGVDLKTQPVRNTERTIYVRDPTSNKQQRPVPESQLLPGQRFQTKDPEEQGDIVVALYPYDGIHPDDLSFKKGEKMKVLEEHGEWWKAKSLLTKKEGFIPSNYVAKLNTLETEEWFFKDITRKDAERQLLAPGNSAGAFLIRESETLKGSFSLSVRDFDPVHGDVIKHYKIRSLDNGGYYISPRITFPCISDMIKHYQKQADGLCRRLEKACISPKPQKPWDKDAWEIPRESIKLVKRLGAGQFGEVWMGYYNNSTKVAVKTLKPGTMSVQAFLEEANLMKTLQHDKLVRLYAVVTREEPIYIITEYMAKGSLLDFLKSDEGGKVLLPKLIDFSAQIAEGMAYIERKNYIHRDLRAANVLVSESLMCKIADFGLARVIEDNEYTAREGAKFPIKWTAPEAINFGCFTIKSDVWSFGILLYEIVTYGKIPYPGRTNADVMTALSQGYRMPRVENCPDELYDIMKMCWKEKAEERPTFDYLQSVLDDFYTATEGQYQQQP
# modifications: GFP fusion
# B2: Lyn^G2P-GFP: Nt-mutant (G2P) Lyn-GFP (protein, UniProt P07948 2-512, looked up, variant G2P)
# Tyrosine-protein kinase Lyn: B1 Tyrosine-protein kinase Lyn with A1P
# modifications: C-terminal GFP fusion
# Test system: CUL4A-DDB1-DCAF10
# Assay: In vitro ubiquitination of Lyn-GFP variants by CUL4A-DDB1-DCAF10
# Type: biochemical, human
# Conditions: relative to Lyn^WT-GFP, NMT1/2 siRNA 72 h, mean ± s.d., n = 3
# Excerpt: Lyn^WT-GFP was ubiquitinated by the WT E3 complex in both conditions; however, unlike in vitro ubiquitination with endogenous Lyn (Fig. 5c, d), ubiquitination increased ~6-fold under NMT1/2 siRNA conditions. This is consistent with DCAF10 being limiting and overexpressed Lyn-GFP, accumulating an acetylated fraction available for DCAF10 in vitro. Then, we performed IPs for all Nt variants under NMT1/2 siRNA conditions (Fig. 6d, h–i). […] In vitro ubiquitination assays using untreated cell lysates led to similar results (Supplementary Fig. 7h, i).
# Reactions contained E1, UBCH5B (E2), ubiquitin, Mg-ATP in ligation buffer and were incubated with bead-bound substrates, followed by washing and immunoblot detection of ubiquitinated species (anti-ubiquitin), with loading controls (anti-Lyn, -Fyn, -Src or -GFP) (n = 3 independent enzymatic assays). Complete reagent lists, complex preparation, substrate IP conditions, wash buffers, and gel/blot parameters are provided in the Supplementary Methods and Tables.
# 357 (v/v) glycerol, 2 mM TCEP, supplemented with Protease Inhibitor Cocktail), and lysed
# 358 by sonication. Lysates were cleared by centrifugation at 28,000 rpm for 45 min at 4 °C […]
# 382 EDTA, and loaded on a gradient gel (4–15%). Ubiquitination of substrates was assessed
# 383 by WB using an anti-ubiquitin antibody. Equal substrate loading was evaluated by anti- […]
row,Molecule,Reduction of ubiquitination by the WT complex
1,B1,~ 82 ± 13%
2,B2,~ 84 ± 10%

# — article PMC12775124, “CUL4A-DDB1-DCAF10 is an N-recognin for N-terminally acetylated Src kinases” (Nature Communications, 2026)
